From the supplement of paper PMC12042874
± gives the uncertainty stated by the source.

Assay: amyloid nucleation score (Sup35N fusion, yeast selection) (log enrichment); library NNK2; higher = more nucleation; inactive = no reads after selection
Procedure, shortened: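 Sup35N fusions to peptides of 20 random codons were expressed in psi-negative yeast, induced 24 hours with 100 μM copper sulfate, and grown 7 days at 30°C on medium lacking adenine and uracil. Input and output plasmid inserts were sequenced by Illumina. The nucleation score is the DiMSum log enrichment of output over input reads, centred on the mode score of non-aggregating sequences. Sequences with under 100 input reads were excluded.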

Row | Substance | amyloid nucleation score
1 | DYITCQFYLTVFELSCCMSC | 7.932 ± 0.047
2 | SSRVDVVISHQREAIGSRQC | 5.11 ± 0.077
3 | RSYVHYGLLAWCYIRVSWDP | 0.428 ± 0.44
4 | FLNNVVYRHCDSYLTGNCRN | 5.151 ± 0.041
5 | KLGCYVS | 3.23 ± 0.088
6 | LAHGG | 3.16 ± 0.095
7 | RNYLNMVYGLFFCIHCSCFS | 5.853 ± 0.05
8 | RRSQLRLILTFR | -0.223 ± 0.29
9 | DVCMPIKKSITITTATVRVY | -0.545 ± 0.63
10 | SLDECHLSRRTNS | 0.411 ± 0.34
11 | LQCAFFDSSNMWI | -0.604 ± 0.76
12 | FENIDGWRLFIIARRRAIGG | -1 ± 1
13 | LALSWRNDSYNLKNVLRLLG | -1.16 ± 0.28
14 | NTNAHVRMVDLVSGCASQWL | 1.75 ± 0.3
15 | HYGTTFVISL | 3.85 ± 0.1
16 | KPGRYRDVIRFLSDLLECNG | inactive
17 | FSEPWKWYYADLVFLSVTWL | inactive
18 | RSFYIAVSYMGCICIMPIRR | 2.89 ± 0.13
19 | NAEFIPGYMISVWTSIATIT | 0.359 ± 0.42
20 | IYGAMCLCP | -0.005 ± 0.63
21 | FTGCVYSVFSNQQ | 4.76 ± 0.11
22 | SAKHTWVISR | 0.098 ± 0.79
23 | PFQVFILHYA | 6.356 ± 0.042
24 | PHVRTFRRFRWMY | -0.251 ± 0.39
25 | MVTYVMLSIPGFSSKYFFEG | -1.42 ± 1.1

Row | Substance | amyloid nucleation score
26 | FLDWVLSD | inactive
27 | WSWLSFYLSGMAFLVRYKSG | -0.344 ± 0.56
28 | WYMLLRESPGSCPVGDEQGR | 0.923 ± 0.81
29 | LTSGVHCHKRTVHD | -0.263 ± 1.1
30 | LPCFYEVCQTSHYRFYFIGK | 1.96 ± 0.071
31 | RWLRPRSFWMDVVGSKI | 1.83 ± 0.11
32 | VFYNLGVHMWLWWSGIVLVR | 0.775 ± 0.74
33 | DMYLRIS | inactive
34 | RFVDEPWNTRDTDFLYV | -0.368 ± 1.1
35 | ILKSKVSGPIYVSE | 0.848 ± 0.23
36 | ELSGGQTLLCRSVYLDVDRV | 3.74 ± 0.064
37 | VWDAEFSGPLRHEIMSGFVW | 0.08 ± 0.3
38 | VWPGLIGHRSFFINLHVGKG | 7.38 ± 0.082
39 | CYGRIM | 1.74 ± 0.099
40 | GSSNASVATGFVHIKEVKGG | 0.461 ± 0.8
41 | HCRSIVWSRYFLMNPLN | -0.029 ± 0.61
42 | RHVYWSRSPPRTYGKEWTKG | 0.647 ± 0.23
43 | VNTPDISGRHVSYFDFFVFY | 6.337 ± 0.038
44 | WSWSLGNYYAHNVDCYSVGC | -0.266 ± 0.41
45 | QLYYMKF | 5.685 ± 0.042
46 | LSRSMK | -0.326 ± 0.29
47 | CLSASTALREGFWNPWRCGS | 0.164 ± 0.8
48 | KFTVDFYLTACTGTKIDFMV | 5.981 ± 0.04
49 | YGKKCLSKAKKSTKISLPG | 0.016 ± 1.1
50 | VFHRVEYSWGFRFYCCCLMC | 3.91 ± 0.059

Row | Substance | amyloid nucleation score
51 | GGVAETGERFWHSRLHG | 0.679 ± 0.81
52 | VCVLYLTSTGFLGQLY | 2.74 ± 0.14
53 | RNYRIETSSNVIKV | 0.292 ± 0.65
54 | TSFCTSVIGIVIHQDFAVDG | 5.574 ± 0.045
55 | CGFFVNEFTDLAWSYSLAVN | -0.117 ± 0.74
56 | MTNSLCSTCIMFYSMCMNST | 7.79 ± 0.08
57 | VLTVN | inactive
58 | LFSHFYSYDY | -0.317 ± 1.1
59 | ICTFYDTGLWVIYSVTRKAR | -0.057 ± 0.65
60 | FKICGTFDAFKKL | inactive
61 | SNSHNSRSIAY | 0.475 ± 0.57
62 | RCLWYKACMRPF | inactive
63 | FWIDYLVKFCCDLRMRMILK | 1.64 ± 0.2
64 | LNTYMAYSGWIVTN | -0.148 ± 0.33
65 | DRQTATSEMVSNRLISFRLV | 0.145 ± 0.19
66 | LNRLCRRVCRSINDTIAIRE | -0.157 ± 0.26
67 | VKWACNMLSI | -0.676 ± 0.48
68 | KCEYGLSVKYCVGQTGGN | 1.17 ± 0.48
69 | GSFSEYVLWT | 0.863 ± 0.41
70 | FITNHK | inactive
71 | DKVDLSA | 0.053 ± 1.1
72 | TPPWQGSDWCGNHCNWQGPM | 0.247 ± 0.8
73 | LYWAFTTISLYLTSTFVSLM | -1.66 ± 1.1
74 | PLYEELVWGRFRLMVYTGRF | -0.193 ± 0.76
75 | QGLCRV | 4 ± 0.069

Row | Substance | amyloid nucleation score
76 | ILYGWGRMMCRPLPQGYWMV | 0.449 ± 0.28
77 | EWIWM | -0.129 ± 0.43
78 | DGNAVCDILLLTSIMVSVSA | -0.551 ± 0.54
79 | SMVKKLQMESPAFSVGIFWV | 7.74 ± 0.085
80 | YNYPSVNIRLKIDLAGSLGC | 2.65 ± 0.097
81 | CGKCSVCG | 0.502 ± 0.27
82 | DRYNHKSSMIREVRLLIASY | -0.123 ± 0.76
83 | NCTRSSVWNNVVCLESHPSY | -0.035 ± 0.76
84 | TFDLSWLVHVPDNCCHLLCF | -0.183 ± 0.28
85 | DESICCQEVGNSRVDSDEGR | 2.94 ± 0.12
86 | HNFVFLGKFAYTWKWMKMLS | inactive
87 | TVIRRIYFRRPGRSNMSCTN | -0.067 ± 0.65
88 | YVGGTVGV | -0.807 ± 0.64
89 | DSSMFYVIGLL | -0.626 ± 0.79
90 | LFFALSMCSIF | 6.348 ± 0.032
91 | NRNQRSVDRCGFSWYGTQIG | 1.3 ± 0.32
92 | SLENWLCAVPLCGESLEKVW | 0.469 ± 0.41
93 | AGWNLFLEGVYVW | -0.387 ± 1.1
94 | NMDSGLVMVVLVCDDYMTTT | 0.119 ± 0.61
95 | NQLIGHVFSFVDKSKSFSSS | 0.243 ± 0.56
96 | SDNVLNDSSCLLYINFGAGQ | 2.69 ± 0.15
97 | WSCCKFLDCHITVCDFLVWA | 7.587 ± 0.047
98 | MHGFNDAYFLCDVSAQGLV | -0.128 ± 0.28
99 | YIPIYMGWTGRNRTVMH | inactive
100 | SMTRLLGRDGYTREYSSSSR | 0.834 ± 0.55

Row | Substance | amyloid nucleation score
101 | GMGQTRKCHAGGNWHVYSCR | 0.738 ± 0.47
102 | TCRLRFGCEYGQTFSCVSWA | 0.531 ± 0.64
103 | AGDLKRLSSQQLM | 4.03 ± 0.051
104 | EACVISNGISILL | -0.54 ± 0.35
105 | YSWVGLCPLIGRLYTGFAN | -1.71 ± 0.54
106 | SRVFRSRMDGPFQWSGMGEV | 2.24 ± 0.076
107 | ADIAWSCRLESNCFPTLSMM | 0.255 ± 0.33
108 | LHTTCLFSRWNVFL | 2.3 ± 0.076
109 | CTAHYYCQGCWTSRMLNLTA | -0.116 ± 0.47
110 | YIGLVSS | -0.052 ± 0.65
111 | AVASVETDGSKIYMMDVLNY | -1.16 ± 1.1
112 | LSMVYYATFDGF | -1.01 ± 1.1
113 | KGFDEVGMMAIGFDSWVGTR | 0.242 ± 0.26
114 | FFEFRCWVMKGFWPLRMKDM | 0.414 ± 0.65
115 | RRLGYPYFTR | -0.743 ± 0.44
116 | CIGIWDAIEVVENREL | -0.545 ± 0.64
117 | VHYVFSCCNKLPSANSRWGL | 6.718 ± 0.066
118 | RFAFVRNKTWEQLPMI | inactive
119 | PTSNPSQRSRQRHQ | 0.619 ± 0.81
120 | RLNMYSLSRLVYWAIVMRKM | 0.823 ± 0.25
121 | YGLIFNLASFMLRGPRTSFS | -2.15 ± 0.64
122 | HFMRLYSKVLILLAEKRTAP | 0.083 ± 0.76
123 | FLNSWQVGYLSCSSKLVACN | inactive
124 | PDLCEFLMLYMMITLNFCIN | -0.214 ± 1
125 | CFSCLISWADMNSLLCYLEL | -1.66 ± 0.48

Row | Substance | amyloid nucleation score
126 | AFPKLRAGSSLLCA | 0.74 ± 0.29
127 | QKLLWCYACNVMRARSGSGT | 7.18 ± 0.044
128 | SMNVYVDGFCWLAHVLNVVW | 6.928 ± 0.035
129 | YVNNLGRFCLLYRPWGMVNS | -0.196 ± 1.1
130 | YEFCSTRQRSELGGK | 5.24 ± 0.069
131 | GSNETPHLDALSPSALRMGH | 0.103 ± 0.63
132 | KARRPRIWDMDLLQLWANLP | 1.12 ± 0.66
133 | YVSLNQRVNFA | -1.47 ± 0.76
134 | FVWMCQLS | 6.297 ± 0.048
135 | HKWEAKMGPISVLFRCFGLD | 1.09 ± 0.14
136 | SYHRS | 0.086 ± 0.24
137 | SNIRISTADDSNSFLPFSSA | -0.315 ± 0.43
138 | FRDANKGCIEKFVVTCDFRM | 0.003 ± 0.38
139 | AIAAHFGLMPMCYLCTG | 7.25 ± 0.079
140 | AILFSIFISVGRKWLFSASH | -1.78 ± 1.1
141 | NSVFFY | -1.63 ± 1.1
142 | VGYFLKAMETCVTSLL | inactive
143 | SNCSPLATMDCSPDFMSTF | -0.121 ± 1.1
144 | ALVLRATVVVGIVKPGHAAD | 0.523 ± 0.32
145 | WCHVSLMYRGYLKSGARDGN | 0.199 ± 0.43
146 | ISFIDHYVY | inactive
147 | RLVTGGVWMDSDDSYRVIET | -0.032 ± 1.1
148 | VKASFS | 0.798 ± 0.44
149 | PQVNPYLNLCRLTQDMLLHR | 0.832 ± 0.15
150 | LFSHL | -1.4 ± 0.54

Row | Substance | amyloid nucleation score
151 | FSMFMDIRRFMGSRWCV | 0.089 ± 1.1
152 | SDHTVELFTCKPVMQTRQRT | 0.439 ± 0.27
153 | NEVDG | 2.28 ± 0.1
154 | NWNVRRYVTPAFEFRGCV | 0.833 ± 0.74
155 | AFNARWTEIDVPWRASPAHV | 0.657 ± 0.37
156 | IIISYMFKHSWIKKGRHKLV | 0.597 ± 0.5
157 | VICRGITVARWSF | 3.58 ± 0.065
158 | TSVYPRGYFPVSCACYFLLE | -1.3 ± 0.48
159 | TRRWKALRP | 0.794 ± 0.2
160 | KCTTVIYYMCIGLRH | 4.98 ± 0.041
161 | LTTPLSRQVCMRFRAFNPEA | -0.655 ± 0.41
162 | RWKTVFRVYVEQKALPDLIC | 5.85 ± 0.087
163 | SKGNVV | 0.709 ± 0.42
164 | HIVRNYFTLTSCAHTIHFAD | -0.861 ± 1
165 | FSVMMLMAVLMGTKIGVTEN | 4.19 ± 0.087
166 | NGVGLSVTGKCCKERSIFPP | -0.406 ± 0.5
167 | TNSMNGFFFR | -1.81 ± 1
168 | WLKVS | -1.48 ± 0.55
169 | LTHEKLKGLYCTA | -0.404 ± 0.32
170 | NSNTKTSPIISW | inactive
171 | IRRVSAQVCINWSIEWKSTR | 1.07 ± 0.33
172 | NRWMRGDTVWNVGWWSPNWG | 0.173 ± 0.46
173 | FRYLDRSNYRKSCGYIITLT | -0.74 ± 1.1
